We go through 2 molecules from patent US20060281673A1, “Novel peptide inhibitor of hiv fusion that disrupts the internal trimeric coiled-coil of gp41” (priority 2003, published 2006).

The target in one experiment is N36^Mut(e,g). Nature of the experiment: cell-based or functional assay.
Experiment [1] deals with pre-hairpin intermediate of gp41 (HIV-1 Env on effector cells) (HIV-1), P03377. In words: cell-based or functional assay.

In the experiment with N36^Mut(e,g), SGIDQEQNNLTRLIEAQIHELQLTQWKIKQLLARIL (modifications not checked) [N36^Mut(e,g)] gave a α: factor relating the homotrimerization association constant of L to Kref^trimer, fitted to the fusion inhibition data at λMT=1.5×10^-4 M of 0.34 and a α: factor relating the homotrimerization association constant of L to Kref^trimer, fitted to the fusion inhibition data at λMT=1.5×10^-5 M of 1.07. In experiment [1], this molecule registered an IC50, inhibition of HIV Env-mediated cell fusion (vaccinia virus-based reporter gene assay) of 308 nM; a fold activity in inhibiting fusion relative to N36 of 50 fold; a β: factor relating the heterotrimerization association constant of M and L to Kref^trimer, fitted to the fusion inhibition data at λMT=1.5×10^-4 M of 5.76; a β: factor relating the heterotrimerization association constant of M and L to Kref^trimer, fitted to the fusion inhibition data at λMT=1.5×10^-5 M of 2.97.
For SGIVQQLNNQLRAEEANQHLEQLSVWGSKQNQARRL (modifications not checked) [N36^Mut(a,d)], the inhibition of HIV Env-mediated cell fusion (vaccinia virus-based reporter gene assay) in experiment [1] is > 0.1 mM.
